The chains are these.
B2: CD7 on CD7-positive T-cell lines Jurkat and CEM (receptor)
chain: AQEVQQSPHCTTVPVGASVNITCSTSGGLRGIYLRQLGPQPQDIIYYEDGVVPTTDRRFRGRIDFSGSQDNLTITMHRLQLSDTGTYTCQAITEVNVYGSGTLVLVTEEQSQGWHRCSDAPPRASALPAPPTGSALPDPQTASALPDPPAASALPAALAVISFLLGLGLGVACVLARTQIKKLCSWRDKNSAACVVYEDMSHSRCNTLSSPNQYQ
notes: CD7, cell surface glycoprotein of the immunoglobulin superfamily, endogenous on the human T-ALL cell lines Jurkat and CEM; Also used as the target in the functional rows on patient-derived primary AML and T-ALL cells; source: endogenous, on Jurkat and CEM cells

Holding throughout (details): one partner purified
Test [1] deals with B2. The test is described as follows: flow cytometry on cells; nanobody or immunotoxin at different concentrations incubated with Jurkat cells on ice; detected with APC anti-HA or Alexa Fluor 488 anti-His antibody; saturation curves, Scatchard plots, nonlinear regression (Prism). Background: A flow cytometer gives signals particle by particle.
For test [2], the target named is T1, PG001, monovalent CD7 nanobody-based immunotoxin (VHH6-PE38-KDEL) (Pseudomonas (species )).
T1 construct: also called pET28a-VHH6-PE38-KDEL; not shown: His6, N-terminal, kept
The test is described as follows: flow cytometry on cells.

Test [3] has as its target T2, PG002, bivalent CD7 nanobody-based immunotoxin (dVHH6-PE38-KDEL) (Pseudomonas (species )).
T2 construct: also called pET28a-dVHH6-PE38-KDEL; not shown: His6, N-terminal, kept
Put plainly: flow cytometry on cells.

These results are taken from article PMC5085138, “Novel CD7-specific nanobody-based immunotoxins potently enhanced apoptosis of CD7-positive malignant cells” (Oncotarget, 2016).

B1: VHH6, CD7-specific nanobody (VHH)
VHH: DVQLQESGGGLVQAGGSLRLSCAVSGYPYSSYCMGWFRQAPGKEREGVAAIDSDGRTRYADSVKGRFTISQDNAKNTLYLQMNRMKPEDTAMYYCAARFGPMGCVDLSTLSFGHWGQGTQVTVSI
notes: Selected from a phage library of animals immunized with Jurkat cells (llama in the results, Camelus dromedarius in the methods); Monomer by SEC; also called parental nanobody; source: E. coli BL21 (DE3), pET28a, purified (Ni-NTA)
In turn, B1 showed a Kd in test [1] of 15.4 nM.

Take B2: the Kd was 16.7 nM in test [2] and 3.61 nM in test [3].

B3: VHH10, CD7-specific nanobody (VHH)
VHH: DVQLQESGGGSVQAGGSLRLSCAASGYTHSSYCMAWFRQAPGREREGVASIDSDGTTSYADSVKGRFTISQDNAKNTLYLQMNSLKPEDTAMYYCAARFGPMGCVDLSTLSFGHWGQGTQVTVSI
notes: source: E. coli BL21 (DE3), pET28a, purified (Ni-NTA)
Molecule B3 gave a Kd in test [1] of 29.6 nM.
